Assay results published in patent US20190144535A1 (AGENCY FOR SCIENCE TECHNOLOGY AND RESEARCH, published 2019).
Residue numbers refer to the chain shown, from its start.

B1: Fab clone 1H (Fab, V domains shown)
VH: EVQLVQSGAEVKKPGASVKVSCKASGYTFTSYYMHWVRQAPGQGLEWMGLVDPEDGETIYAEKFQGRVTITADTSTDTAYMELSSLRSEDTAVYYCARVEWVAGTEGWGYYFDYWGQGTLVTVSS
VL: NFMLTQPHSVSESPGKTVTIPCTASSGSIANNFVQWYQQRPGSAPTTVIYEDSQRPSGVPDRVSGSIDSSSNSASLTISGLKTEDEADYYCQSYDSANDRVTFGGGTKLIVLG
B2: Fab clone 2H (Fab, V domains shown)
VH: QVQLQQWGAGLLKPSETLSLTCAVYGGSFSDYYWSWIRQPPGKGLEWIGEIDHSGSTNYNPSLKSRVTISVDTSRNQFSLSLSSVTAADTAVYYCARASPSSGWTLDYWGQGTLVTVSS
VL: QSVLTQPPSVSVSPGQTASITCSGDKLGDKFAFWYQQKPGQSPVLVIYLDNKRPSGIPERFSGSNSGNTATLTISGTQALDEADYYCQAWDSNIEVFGGGTKLTVLG
B3: P1D9 (antibody, V domains shown)
VH: B2 VH
VL: B2 VL with Q88Y, S92N, N93A, I94Y
notes: also called matured Ig P1D9
B4: IgG1 1H (antibody, V domains shown)
VH: B1 VH
VL: B1 VL
B5: P2D8 (antibody, V domains shown)
VH: B2 VH
VL: B2 VL with Q88E, D91A, S92D, N93T, I94Y
notes: also called matured Ig P2D8
B6: IgG1 2H (antibody, V domains shown)
VH: B2 VH
VL: B2 VL
notes: also called IgG 2H; IgG clone 2H
B7: P1H8 (antibody, V domains shown)
VH: B2 VH
VL: B2 VL with D91A, S92D, N93S, I94F
notes: also called matured Ig P1H8
B8: P1E8 (antibody, V domains shown)
VH: B2 VH with R75K, S81K
VL: B2 VL with Q88E, S92A, N93A, I94A
B9: P2D7 (antibody, V domains shown)
VH: B2 VH
VL: QSVLTQPPSVSVSPGQTASITCSGDKLGDKFAFWYQQKPGQSPVLVIYLDNKRPSGIPERFSGSNSGNTATLTISGTQALDEADYYCYAWADTYEVFGGGTK
notes: claim 45 pairs 17 with 14); also called matured Ig P2D7

Experiments:
human IL-1β [1] = molecular target: T1, human IL-1β (human, UniProt P01584 117-269); assay: cell-based or functional assay
mouse IL-1β [2] = molecular target: T2, mouse IL-1β (mouse, UniProt P10749 118-269); assay: cell-based or functional assay
human IL-1β [3] = molecular target: T1, human IL-1β; assay: cell-based or functional assay; remark: listed apart in the source
human IL-1β [4] = molecular target: T1, human IL-1β; assay: ProteOn bioanalyzer (BioRad)
Description: (§1) Matured clones (except P1E8) were tested for affinity towards mouse and human IL-1β using the ProteOn bioanalyzer (BioRad, Hercules, USA).

mouse IL-1β [5] = molecular target: T2, mouse IL-1β; assay: ProteOn bioanalyzer (BioRad)
Description: as §1

mouse IL-1β [6] = molecular target: T2, mouse IL-1β; assay: cell-based or functional assay; remark: listed apart in the source
mouse IL-1β [7] = molecular target: T2, mouse IL-1β; assay: direct ELISA, OD 460 nm against IgG 2H concentration
mouse IL-1β [8] = molecular target: T2, mouse IL-1β; assay: ProteOn bioanalyzer (BioRad); end of the range tied to P1H8 by Table 1
Description: as §1

mouse IL-1β [9] = molecular target: T2, mouse IL-1β; assay: ProteOn bioanalyzer (BioRad); end of the range tied to P2D7 by Table 1
Description: as §1

EC50, inhibition of mouse IL-1β-induced IL-6 secretion by MRC5 cells (mouse IL-1β [2])	EC50, inhibition of human IL-1β-induced IL-6 secretion by MRC5 cells (human IL-1β [3])	Kd (human IL-1β [4])	Kd (mouse IL-1β [5])	other results	Binder
				IC50 (concentration inhibiting 50% of IL-1β activity), HEK-Blue IL-1β cells, SEAP reporter (human IL-1β [1]): 1.31 nM	B1
				IC50 (concentration inhibiting 50% of IL-1β activity), HEK-Blue IL-1β cells, SEAP reporter (human IL-1β [1]): 0.21 nM	B2
0.241 nM	0.0207 nM	0.00673 nM	0.0236 nM		B3
				inhibition potency (EC50), human IL-1β induced IL-6 production in MRC5 cells (human IL-1β [1]): 3.92 nM; potency (EC50), neutralization in HEK-Blue cells stimulated with 4 pM human IL-1β (human IL-1β [1]): 2.6 nM; potency (EC50), neutralization in HEK-Blue cells stimulated with mouse IL-1β (mouse IL-1β [6]): 11.5 nM	B4
0.197 nM	0.011 nM	0.00457 nM	0.0166 nM		B5
1.25 nM	0.148 nM	0.0783 nM	0.142 nM	EC50 (read off the curve) (mouse IL-1β [7]): ~0.3 nM; inhibition potency (EC50), human IL-1β induced IL-6 production in MRC5 cells (human IL-1β [1]): 0.35 nM; potency (EC50), neutralization in HEK-Blue cells stimulated with 4 pM human IL-1β (human IL-1β [1]): 0.17 nM; potency (EC50), neutralization in HEK-Blue cells stimulated with mouse IL-1β (mouse IL-1β [6]): 1.5 nM	B6
0.623 nM	0.0215 nM	0.0101 nM	0.0489 nM	fold higher affinity compared to IgG 2H (mouse IL-1β [8]): 3 to 13 fold	B7
0.479 nM	0.0453 nM				B8
0.158 nM	0.00653 nM	0.0031 nM	0.0109 nM	fold higher affinity compared to IgG 2H (mouse IL-1β [9]): 3 to 13 fold	B9
